Values of other authors as cited in PMC6615999.

Biological target: PKR (Homo sapiens) (UniProt P19525)

Kd: 500 µM
Substance: PKR (from UniProt P19525)
